Source: patent US20190262327A1, “COMBINATION OF A BACE INHIBITOR AND AN ANTIBODY OR ANTIGEN-BINDING FRAGMENT FOR THE TREATMENT OF A DISORDER ASSOCIATED WITH THE ACCUMULATION OF AMYLOID BETA” (ASTRAZENECA AB, priority 2016, published 2019)

Legend:
amyloid beta 1-42 = target: T1, amyloid beta 1-42 (Rattus norvegicus, UniProt P08592); experiment: Total amyloid beta 1-42 in rat CSF (PK-PD study in normal rats); type: in vivo
T1 construct: Measurement of free Amyloid beta 1-42 peptide in rat CSF; from tissue; host or cells: CSF and brain homogenate of Sprague-Dawley rats
T1 sequence (P08592 672-713 limits assumed): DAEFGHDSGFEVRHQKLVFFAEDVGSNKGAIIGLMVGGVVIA
Experimental: (§1) The ability of antibody Abet0144-GL to sequester amyloid beta 1-42 was investigated in a PK-PD study in normal rats. Rats were intravenously administered Abet0144-GL (10 or 40 mg/kg) or vehicle weekly for 2 weeks (on days 0 and 7), and sacrificed a week after the 2nd dose. CSF was sampled for free and total amyloid beta 1-42, and brain was sampled for total amyloid beta 1-42 measurement. Free and total amyloid beta 1-42 levels were measured using assays described above.

[1] = target: T2, Amyloid beta 1-42 peptide (Rattus norvegicus, UniProt P08592); experiment: Free Amyloid beta 1-42 peptide in rat CSF (immunoprecipitation + ELISA); type: in vivo; conditions: normal rats, 10 mg/kg i.v. weekly for 2 weeks; not significant
T2 construct: Measurement of free Amyloid beta 1-42 peptide in rat CSF; from tissue; host or cells: CSF and brain homogenate of Sprague-Dawley rats
T2 sequence (P08592 672-713 limits assumed): as above
Experimental: (§2) Eight-week old male albino Harlan Sprague-Dawley rats (n=8-12) received a single dose of Abet0380-GL IgG1-TM antibody by intravenous injection with a dosing vehicle of 25 mM Histidine, 7% Sucrose, 0.02% p80 surfactant, pH 6.0 at 5 ml/kg. Dosing solutions were made just before dosing. Animals were anaesthetized at the time indicated and cerebrospinal fluid (CSF) was aspirated from the cistema magna. CSF samples were centrifuged for 10 minutes at approximately 3000× g at 4° C. within 20 minutes of sampling to remove cells or debris. Samples were then frozen on dry ice and stored at −70° C. for subsequent analysis.
Measurement of free Amyloid beta 1-42 peptide in rat CSF was conducted using immunoprecipitation to remove Abet0380-GL bound Amyloid beta 1-42 peptide, followed by analysis by a commercial ELISA kit obtained from Invitrogen. Briefly, a solution of protein A beads (Dynabeads® Protein A; Invitrogen, UK; cat: 100-02D) was added to a 96 well non-skirted plate (polypropylene 0.2 ml; VWR International, UK; cat: 10732-4828) and washed twice with TBST (50 mM TBS; Sigma, UK; cat: T6664 plus 0.1% Tween20) using a magnet (DynaMag™ 96 side; Invitrogen, UK; cat: 123.31 D) to separate the beads from the solution. Thawed rat CSF samples (40 μl) were added to each well and incubated at […] with tilt rotation for 1 hour. The beads were then pelleted using the magnet and 30 μl of immunoprecipitated CSF samples were transferred to a 96 well plate from the ELISA kit (mouse Amyloid beta (1-42) colorimetric ELISA kit; Invitrogen, UK; cat: KMB3441) with 70 μl of the Standard Diluent Buffer already added (supplemented with protease inhibitor; Roche, UK; cat: 11836153001). Calibration standard samples were added to the plate in duplicate and the plate was incubated for 2 hours at room temperature with shaking. The plate was washed 4 times with 400 µl of wash buffer, 100 μl of the detection antibody solution was added to each well and the plate was incubated for 1 hour at room temperature with shaking. Again, the plate was washed 4 times with 400 μl of wash buffer, 100 μl of the secondary antibody working solution was added to each well and the plate was incubated for 30 minutes at room temperature with shaking. Finally, the plate was washed 4 times with 400 μl of wash buffer, 100 μl of stabilized Chromogen was added to each well and the plate was incubated for 30 minutes at room temperature in the dark. To stop the reaction, 100 μl of Stop Solution was added to each well and the plate was read within 2 hours at an absorbance of 450 nm. Single CSF samples were analyzed and data analysis was performed using Prism 4 (GraphPad, USA) with one-way ANOVA on log transformed data without adjustment for multiple comparisons.
To further investigate the effect of the Abet0380-GL IgG1-TM antibody in vivo, rats were administered weekly doses of 0.25, 0.5, 1, 5 or 10 mg/kg over 14 days. Animals were euthanized 168 hours after the second dose to measure levels of free Amyloid beta 1-42 peptide in CSF as well as total Amyloid beta 1-42 or 1-40 peptides in brain tissue.
as §1, with “CSF was sampled for free and total amyloid beta 1-42, and brain was sampled for total amyloid beta 1-42 measurement.” left out

[2] = target: T2, Amyloid beta 1-42 peptide; experiment: Total Amyloid beta 1-42 peptide in rat brain homogenates (ELISA); type: in vivo; conditions: normal rats
Experimental: as §2
Animals were sacrificed by decapitation, brain tissue was dissected and Amyloid beta peptides were extracted from brain tissue in diethylamine (DEA; Fluka. Sigma. UK; cat: 31729). Briefly, frozen brain tissue was homogenized in 0.2% DEA and 50 mM NaCl (Merck, USA: cat: 1.06404.1000). Brain homogenates were ultracentrifuged at 133,000×g, for 1 hour. Recovered supernatants were neutralized to pH 8.0 with 2 M Tris-HCl (TRIZMA®-hydrochloride; Sigma, UK; cat: 93363) and stored at −70° C. until analysis. Animal experimentations were performed in accordance with relevant guidelines and regulations provided by the Swedish Board of Agriculture. The ethical permission was provided by an ethical board specialized in animal experimentations: the Stockholm Södra Animal Research Ethical Board.
Measurement of total (free and Abet0380-GL bound) Amyloid beta 1-42 peptide in rat brain homogenates was performed using modifications of the mouse Amyloid beta (1-42) colorimetric ELISA kit (Invitrogen, UK: cat: KMB3441). […] To stop the reaction, 100 μl of Stop Solution was added to each well and the plate was read within 2 hours at an absorbance of 450 nm. […]
The ability of antibody Abet0144-GL to sequester amyloid beta 1-42 was investigated in a PK-PD study in normal rats. […] Free and total amyloid beta 1-42 levels were measured using assays described above.

[3] = target: T3, human Amyloid beta 1-42 peptide (Homo sapiens, UniProt P05067); experiment: Surface Plasmon Resonance kinetic profiling of purified scFv (ProteOn); type: binding; conditions: biotinylated human Amyloid beta 1-42 on streptavidin chip
T3 construct: biotinylated human Amyloid beta 1-42 peptide (rpeptide, USA; cat: A1117); purchased rPeptide, USA A1117; host or cells: synthetic peptide
T3 sequence (P05067 672-713): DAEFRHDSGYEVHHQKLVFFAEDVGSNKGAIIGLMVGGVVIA
From the text: Surface Plasmon Resonance was used to analyse the purified scFv clones that had shown significant improvement in binding affinity for human Amyloid beta 1-42 peptide over the parent sequence, Abet0144-GL, in the HTRF™ epitope competition assay (sections 1.3-1.6). Briefly, the ProteOn Protein Interaction Array System (BioRad, USA) was used to assess the kinetic parameters of the interaction between each purified scFv and synthetically produced human Amyloid beta 1-42 peptide. These experiments were performed essentially as described by Karlsson et al. (Karlsson et al., 1991).
The affinity of binding between each test scFv and human Amyloid beta 1-42 was estimated using assays in which biotinylated synthetic human Amyloid beta 1-42 peptide (rPeptide, USA; cat: Al 117) was non-covalently bound via a biotin/streptavidin interaction to a proprietary streptavidin chip (NTA 176-5021) at five different surface densities. The chip surface was regenerated between cycles by a single 60 second injection of 10 mM Glycine pH 2.0 to remove scFv bound to the peptide.
Each scFv at 100-200 nM was sequentially passed over the peptide surface for a sufficient amount of time to observe sensorgrams that could be fitted to an appropriate binding model with confidence. An irrelevant scFv blank was subtracted from the main dataset to reduce the impact of any buffer artefacts or non-specific binding effects. An appropriate binding model was then fitted to the data.

[4] = 10 mg/kg i.v. weekly for 2 weeks
[5] = 40 mg/kg i.v. weekly for 2 weeks

B1: Abet0144-GL: parent anti-Aβ antibody clone, germlined; VH domain SEQ ID NO: 20 and VL domain SEQ ID NO: 29 (antibody, listed as Homo sapiens, V domains shown)
VH: EVQLLESGGGLVQPGGSLRLSCAASGFTFSVYTMWWVRQAPGKGLEWVSVIGSSGGTTVYADSVKGRFTISRDNSKNTLYLQMNSLRAEDTAVYYCAREWMDHSRPYYYYGMDVWGQGTLVTVSS
VL: SYELTQPPSVSVSPGQTASITCSGHNLEDKFASWYQQKPGQSPVLVIYRDDKRPSGIPERFSASNSGHTATLTISGTQAMDEADYYCQAQDSTTRVFGGGTKLTVL
modifications: /note=“Abet0144-GL”
- increase of total amyloid beta 1-42 in CSF (amyloid beta 1-42; [4]): 38%
- increase of total amyloid beta 1-42 in CSF (amyloid beta 1-42; [5]): 139%
- increase of free amyloid beta 1-42 in CSF compared with vehicle [1]: 5%
- increase of total amyloid beta 1-42 in brain tissue [2, 4]: 16%
- increase of total amyloid beta 1-42 in brain tissue [2, 5]: 50%
- ka [3]: 116000 M⁻¹ s⁻¹
- kd [3]: 0.0066 s⁻¹
